# From the RNAGym collection of RNA variant scans (doi:10.7554/elife.90254)
# B1: LINE1-full (parent)
# chain: UACGUAGGUGGUUUUCCCCUGAUAGUGCUAAGGGGGCCUGGAAGUUUGGACUGGGCAGAGCUCAACACAGCGUGGCAAAGUGGCUGUGGCUAGACUGCCUCUCUGGAUUCCUCGUCACUCAGCAGGGCAUCUCUGAGAGAAAUGCC
# Variants of: B1
# Experiment: self-cleavage, relative activity (ratio to wild type); higher = more cleavage; in vitro, sequencing; the parent is a self-cleaving ribozyme
row,Variant,self-cleavage
1,UACGUAGGUGGGUUUCCCCUGCUAGUGCUAAGGGGGCCUGGAAGUUUGGACUGGGCAGAGCUCAACACAGCGUGGCAAAGUGGCUGUGGCUAGACUGCCUCUCUGGAUUCCUCGUCACUCAGCAGGGCAUCUCUGAGAGAAAUGCC [U12G A22C],1.68
2,UACGUAGGUGGUUUUCCCCUGAUAGUGCUGAGGGGGCCUGGAAGUUUGGACUGGGCAGAGCUCAACACAGCGUGGCAAAGUGGCUGUGGCUAGACUGCCUCUCUGGAUUCCUCGUCACUCAGCAGGGCAACUCUGAGAGAAAUGCC [A30G U130A],1.15
3,UACGUAGGUGGUUUUCCCCUGAUAGUGCUAAGGGGGCCUGGAAGUUUGGACUGGGCAGAGCUCAACACCGCGUGGCAAAGUGGCUGUGGCUAGACUGCCUCUCUGGAUUCCCCGUCACUCAGCAGGGCAUCUCUGAGAGAAAUGCC [A69C U112C],0
4,UACGUAGGUGGUUCUCCCCUGAUAGUGCUAAGGGGGCCUGGAAGUUUGGACUGGGCAGAGCUCAACACAGCGUGGCAAAGUGGCGGUGGCUAGACUGCCUCUCUGGAUUCCUCGUCACUCAGCAGGGCAUCUCUGAGAGAAAUGCC [U14C U85G],0
5,UACGUAGGUGGUUUUCCCCUGAUAGUGCUAAGGGGGCCUGGAAGUUUGGACUGAGCAGAGCUCAACACAGCGUGGCAAAGUGGCUGUGGCUAGACUGCCUCCCUGGAUUCCUCGUCACUCAGCAGGGCAUCUCUGAGAGAAAUGCC [G54A U102C],0.33
6,UACGUAGGUGGUUUUCCCCUGAUAGUGCUAAGGGGGCCUGGAAGUUUGGACUGGGCAGAGCUCAACACAGCGUGGCAAAGUGGCUGUGGCUAGACUGCCUCUCUGGAUUCCUCGUCACUCCGCAGGGCAUCUCUGGGAGAAAUGCC [A121C A136G],1.72
7,UACGUAGGUGGUUUUCCCCUGAUAGUGCUAAGUGGGCCUGGAAGUUUGGACUGGGCAGAGCUCAACACAGCGUGGCAAAGUGGCUGUGGCUAGACUGCCUCUCUGGAUUCCUCGUCACUCGGCAGGGCAUCUCUGAGAGAAAUGCC [G33U A121G],0.64
8,UACGUAGGUGGUUUUCCCCUGAUAGUGCUAAGGGGGCCCGGAAGUUUGGACUGGGCAGAGCUCAACACAGCGUGGCAAAGUGGCUGUGGCUAGACUGCCUCUCUGGAUUCCUCGUCACUCAGCAGGGUAUCUCUGAGAGAAAUGCC [U39C C128U],1.16
9,UACGUAGGUGGUUUUCCCCUGAUAGUGCUAAGGGGGCCUGGAAGUUUGGACUGGGCAGAGCUCAACACAGCGUGGCAAAGUGGCUGUGGCUAGACUGCCACUCUGGAUUCCUCGCCACUCAGCAGGGCAUCUCUGAGAGAAAUGCC [U100A U115C],1.22
10,UACGUAGGUGGUUUUCCCCUGAUAGUGCUAAGGGGGCCUGGAAGUUUGGACUGGGCAGAGCUCAACUCAGCGUGGCAAAGUGGCUGUUGCUAGACUGCCUCUCUGGAUUCCUCGUCACUCAGCAGGGCAUCUCUGAGAGAAAUGCC [A67U G88U],0.02
11,UACGUAGGUGGUCUUCCCCUGAUAGUGCUAUGGGGGCCUGGAAGUUUGGACUGGGCAGAGCUCAACACAGCGUGGCAAAGUGGCUGUGGCUAGACUGCCUCUCUGGAUUCCUCGUCACUCAGCAGGGCAUCUCUGAGAGAAAUGCC [U13C A31U],1.1
12,UACGUAGGCGGUUUUCCCCUGAUAGUGCUAAGGGGGCCUGGAAGUUUGGACUGGGCAGAGCUCAACACAGCGUGGCAAAGUGGCUGUGGCUAGCCUGCCUCUCUGGAUUCCUCGUCACUCAGCAGGGCAUCUCUGAGAGAAAUGCC [U9C A94C],0.11
13,UACGUAGGUGGUUUUCCCCUGAUAGUGCUAAGGGGGCCUGGAAGUUUGGACUGGGCAGAGCUCAACACAGCGUGGCAAAGAGGCUGUGGCUAGACUGCCUCUCUGGAUUCCUCGUCACUCAGCAGGGCAUCUCGGAGAGAAAUGCC [U81A U134G],0.65
14,UACAUAGGUGGUUUUCCCCUGAUAGUGCUAAGGGGGCCUGGAAGUUUGGACUGGGCAGAGCUCAACACAGCGUGACAAAGUGGCUGUGGCUAGACUGCCUCUCUGGAUUCCUCGUCACUCAGCAGGGCAUCUCUGAGAGAAAUGCC [G4A G75A],0.87
15,UACGUAGGUGGUUUUCCCCUGAUAGUGCUAAGGGGGCCUGGAUGUUUGGACUGGGCAGAGCUCAACACAGCGUGGCAAAGUGGCUGUGGCUAGACUGCCUCUCUGGAUUCCCCGUCACUCAGCAGGGCAUCUCUGAGAGAAAUGCC [A43U U112C],1.48
16,UACGUAGGUGGUUUUCCCCUGAUAGUGCUAAGGGGGCCUGGAAGUUUGGACUGGGCAGAGCUCAACACAGCGUGGCAAAGUGGCUGUGGCUAGACUGCCUCUCUGGAUUCCUCAUCACUCAGCAUGGCAUCUCUGAGAGAAAUGCC [G114A G125U],1.49
17,UACGUAGGUGGUUUUCCCCUGAUAGUGCUAAGGGGGCCUGGAAGUUUGGACUGGGCAGAGCUCAACACAGCGUGGCAAAGUGGCUGUGGCUAGACUGCCUCUCUGGAUUCCUCGUCACUCAGCGGGGCAUCUCUGAGGGAAAUGCC [A124G A138G],1.36
18,UACGUAGGUGGUUUUCCCCUGAUAGUGCUAAGGGGGCCUGGAAGUUUGGACUGGGCAGAGCUCAACACAGCGUGGCAAAGUGGCUGUGGCUAGACUGCCUCUCUGGGUUCCUCGUCACUCAGCAGGGCAUCUCUAAGAGAAAUGCC [A107G G135A],1.64
19,UACGUAGGUAGUUUUCCCCUGAUAGUGCUAAGGGGGCCUGGAAGUUUGGACUGGGCAGAGCCCAACACAGCGUGGCAAAGUGGCUGUGGCUAGACUGCCUCUCUGGAUUCCUCGUCACUCAGCAGGGCAUCUCUGAGAGAAAUGCC [G10A U62C],0.06
20,UAAGUAGGUGGUUUUCCCCUGAUAGUGCUAAGGGGGCCUGGAAGUUUGGACUGGGCAGAGCUCAACACAGCGUGGCAAAGUGGCUGUGGCUAGACUGCCUCUCUGGAUUCCUCGUCACUCUGCAGGGCAUCUCUGAGAGAAAUGCC [C3A A121U],0.58

row,Variant,self-cleavage
1,UACGUAGGUGGUUUUCCCCUGAUAGUGCUAAGGGGGCCUGGAAGCUUGGAAUGGGCAGAGCUCAACACAGCGUGGCAAAGUGGCUGUGGCUAGACUGCCUCUCUGGAUUCCUCGUCACUCAGCAGGGCAUCUCUGAGAGAAAUGCC [U45C C51A],0.2
2,UACGUAGGUGGUUUUCCCCUGAUAGUGCUAAGGGGGCCUGGAAGUUUGGACCGGGCAGAGCUCAACACAGCGUGGCAAAGUGGCUGUGGCUAGACUGCCUCUCUGGAUUCCUCGUCACUCAGCAGGGCAUCUCUGAGAAAAAUGCC [U52C G139A],0.78
3,UACGUAGGUGGUUUUCCCCUGAUAGUGCUAAGGGGGCCUGGAAGUUUGGACUGGGCAGAGCCCAACACAGCGUGGCAAAGUGGCUGUGGCUAAACUGCCUCUCUGGAUUCCUCGUCACUCAGCAGGGCAUCUCUGAGAGAAAUGCC [U62C G93A],0.06
4,UACGUAGGUGGUUUUCUCCUGAUAGUGCUAAGGGGGCCUGGAAGUUUGGACUGGGCAGAGCUCAACACAGCAUGGCAAAGUGGCUGUGGCUAGACUGCCUCUCUGGAUUCCUCGUCACUCAGCAGGGCAUCUCUGAGAGAAAUGCC [C17U G72A],1.05
5,UACGUAGGUGGUUUUCCCCUGAUAGUGCUAAGGGGGCCUGGAAGUUUGGACUGGGCUGAGCACAACACAGCGUGGCAAAGUGGCUGUGGCUAGACUGCCUCUCUGGAUUCCUCGUCACUCAGCAGGGCAUCUCUGAGAGAAAUGCC [A57U U62A],0.03
6,UACGUAGGUGGUUUUCCCCUGAUAGUGCUAAGGGGGCCUGGAAGUUUGGACUGGGCAGAGCUCAACACAGCGUGGCAGAGUGGCUGUGGCUAGACUGCCUCUCUGGAUUCCUCGUCACUCAGCAGGGCAUCUCUGAGAGAAGUGCC [A78G A142G],1.21
7,UACGUAGGUGGUUUUCCCCUGAUAGUGCUAAGGGGGCCUGGAAGUUUGGACUGGGCAGAGCUCCACACAGCGUGUCAAAGUGGCUGUGGCUAGACUGCCUCUCUGGAUUCCUCGUCACUCAGCAGGGCAUCUCUGAGAGAAAUGCC [A64C G75U],0.08
8,UACGUAGGUGGUUUUCCCCUGAUAGUGCUAAGGGGGCCUGGAAGUUUGGACUGGGCAGAGCUCAACACAGCGUGGCAAAGUGGCUGUGGCUAGACUGCCUCUCUGGAUUCCCCGUCACUCAGCAGGGCAUCUCUGAGAGAAAGGCC [U112C U143G],1.81
9,UACGUAGGUGGUUUUACCCUGAUAGUGCUAAAGGGGCCUGGAAGUUUGGACUGGGCAGAGCUCAACACAGCGUGGCAAAGUGGCUGUGGCUAGACUGCCUCUCUGGAUUCCUCGUCACUCAGCAGGGCAUCUCUGAGAGAAAUGCC [C16A G32A],0.77
10,UACGUAGGUGGUUUUCCCCUGAUAGUGCUAAGGGGGCCUGGAAGUUUGGACUGGGCAGAGCUCAACACAGCGUGGCAGAGUGGCUGUGGCUAGACUUCCUCUCUGGAUUCCUCGUCACUCAGCAGGGCAUCUCUGAGAGAAAUGCC [A78G G97U],0.03
11,UACGUAGGUGGUUUUCCCCUGAUAGUGCUAAGGAGGCCUGGAAGUUUGGACUGGGCAGAGCUCAACACAGCGUGGCAAAGUGGCUGUGGCUAGACGGCCUCUCUGGAUUCCUCGUCACUCAGCAGGGCAUCUCUGAGAGAAAUGCC [G34A U96G],0.09
12,UACGUAGGUGGUUUUCCCCUGAUAGUGCUAAGGGGGCCUGGAAGUUUGGACUGGGCAGAGACCAACACAGCGUGGCAAAGUGGCUGUGGCUAGACUGCCUCUCUGGAUUCCUCGUCACUCAGCAGGGCAUCUCUGAGAGAAAUGCC [C61A U62C],0.08
13,UACGUAGGUGGUUUUCCCCUGAUAGUGCUAAGGGGGCCUGGAAGUUUGGACUGGGCAGAGCUCAACACAGCGUGGCAAAGUGGCUGUGGCUAGACUGCCUCUCUGGAUUCCUCGUCACUCAGCAGGGCAUCUCUGGGAGAAAUGCU [A136G C146U],1.91
14,UACGUAGGUGGUUUUCCCCUGAUAGUGCUAAGGGGGCCUGGAAGUUUGGACUGGGCAGAGCUCAACACAGCGUGGCAAAGUGGCUGUGGCUAGACUGCCUCUCUGGAUUUCUCGUCACUCAGCAGGGCAUCUCUGAGAGGAAUGCC [C110U A140G],1.41
15,UACGUAGGUGGUUUUCCCCUGAUAGUGCUAAGGGGGCCUGGAAGUUUGGACUGGGCAGAGCUCAACUCAGCGUGGCAAAGAGGCUGUGGCUAGACUGCCUCUCUGGAUUCCUCGUCACUCAGCAGGGCAUCUCUGAGAGAAAUGCC [A67U U81A],0.07
16,UACGUAGGUGGUCUUCCCCUGAUAGUGCUAAGGGGGCCUGGAAGUUUGGACUGGGCAGAGCUCAACACAGCGUGGCCAAGUGGCUGUGGCUAGACUGCCUCUCUGGAUUCCUCGUCACUCAGCAGGGCAUCUCUGAGAGAAAUGCC [U13C A77C],1.15
17,UACGUAGGUGGUUUUCCCCUGAUAGUGCUAAGGGGGCCUGGAAGUUUGGACUGGGCAGAGCUCAACACAGCGUGGCAAAGUGGCUGUGGCUAGACUGCCUCACUGGAUUCCUCGUCACUCAGCCGGGCAUCUCUGAGAGAAAUGCC [U102A A124C],1.98
18,UACGUAGGUGGUUUUCCCCCGAUAGUGCUAAGGGGGCCUGGAAGUUUGGACUGGGCAGAGCUCAACACAGCGUGGCAAAGUGGCUGUGGCUAGACUGCCUCUCUGGAUUCCUCGUCACUCAGCAGGGCAUCACUGAGAGAAAUGCC [U20C U132A],1.63
19,UACUUAGGUGGUUUUCCCCUGAUAGUGCUAAGGGGGCCUGGAAGUUUGGACUGGGCAGAGCUCAACACAGCGUGGCAAAGUGGCUGUGGCUAGACAGCCUCUCUGGAUUCCUCGUCACUCAGCAGGGCAUCUCUGAGAGAAAUGCC [G4U U96A],0.09
